The values below come from patent US20140378374A1, “METHODS OF TREATMENT” (GlaxoSmithKline Intellectual Property (No.2) Limited, priority 2013, published 2014).

Data set [1] is described as follows: Population pharmacokinetics, Phase 3 pooled analysis. It counts as in vivo, human. An excerpt:
During each Phase 3 study, 4 blood samples for population pharmacokinetic evaluation were obtained. In the study of patients with CKD, 2 predose samples were obtained at weeks 8 and 16 and 2 postdose samples were obtained at least 2 days after dosing between weeks 8 and 10 and weeks 16 and 20. In the other 3 studies, 2 predose samples were obtained at weeks 8 and 24 and 2 postdose samples were obtained at least 2 days after dosing between weeks 8 and 10 and weeks 24 and 28. The blood collection and storage procedure were the same as described above.
Plasma samples were analyzed for albiglutide by using a validated enzyme-linked immunosorbent assay (ELISA) and were diluted 100-fold with sample buffer before analysis. Albiglutide was captured using a rabbit anti-human GLP-1 (7-36) amide and detected using a rabbit anti-HSA conjugated to biotin. ELISA experiments were performed using the Furoninc® 96 well plate (Nunc, cat. #437796) with the following steps. […] The microtiter plate was washed 5 times with […] wash buffer (10 mM Sodium Phosphate, 150 mM NaCl, 0.05% Tween 20, pH 7.5) using plate washer; 2) […] blocking buffer of SuperBlock in PBS (SuperBlock (Pierce, cat. #37515) in PBS, 5.0% Rabbit Plasma) was added to each well, sealed and incubated with constant shaking for approximately 1.5 hour (±30 minutes) at ambient room temperature and the microtiter plate washed; 3) 100 mL of either standards, quality controls (QCs) or samples were added per well, sealed, incubated and washed; 4) 100 mL of Detection Antibody solution of Biotin Labelled Rabbit polyclonal to Human Serum Albumin (NOVUS Biologicals, cat. # NB 100-1674) was added per well, sealed, incubated and washed; 5) 100 mL of Reporter Tag solution (Streptavidin-HRPO Conjugate, Caltag, cat. # SA1007) was added per well, sealed, incubated and washed; 6) 100 mL of Development Substrate Pico (SuperSignal ELISA, Pierce, cat. #37070) was added, incubated and the plate read using plate reader (Wallac 1420 Victor Multilabel Counter, Perkin Elmer Life Sciences, Boston, Mass.). […]

Data set [2] has as its system patients with type 2 diabetes. The note with it: head-to-head trial; cited from earlier work.

Consider “Albiglutide: recombinant fusion protein of 2 copies of modified human GLP-1 (fragment 7-36(A8G)) genetically fused in series to recombinant human serum albumin”, for which the “apparent clearance CL/F, typical value of the final population PK model” value in data set [1] (BW 90.7, eGFR 77.9, covariates body weight, eGFR, African heritage, insulin) amounted to 66.6 mL/h. Also, the “decrease in clearance vs eGFR around 80 mL/min/1.73 m2” value in data set [1] (patient with eGFR of 50 mL/min/1.73 m2) is “about 9%”; in data set [1] (typical patient with eGFR of 30 mL/min/1.73 m2) it was “about 19%”. Further, the nausea, percentage in data set [2] was 10%. In data set [2], the vomiting, percentage is reported as 5%.
